Experimental data reported in the DeepSol protein solubility set.

Experiment: soluble on expression in E. coli; label from the status in PepcDB or PDB records

Soluble on expression in E. coli, not soluble:
MGSDKIHHHHHHMKQKLRLIQRRTVHYLLVVTYWISKFFPVQTKKVVFATYRSDKLVDNFRAVYDELESRELGFQYVFLLKRFPQNLIGQIKYVFHMMRATYELATARYFIIDDYYYPVYVSKLRKGTEVIQLWHACGAFKKFGYSVLDKSYSPDDDYLKMVAIHRNYSKVYVSGEACIGPFAEAFGMDSTRIHPLGVPRTDQLLNRERQVQIEHKLYDRYPEWRSKKLILLAPTFRGNGQTTAHYDQELDFQQFREQLGPDHILLLRMHPFVLNRPVVPAEFSNQIIDMTDYPDINDLMQVADILVTDYSSVIFEFALLKKPIILLVNDLNAYREERDFYFPYESFVPGPIVSSFNDVISWIKAGQFEPEQIEDFAARFFTYQDGLATKRIVNHILTGALPDAPMRPEERKTV
MGSDKIHHHHHHMTAPRELTAETRCGSSMDSSPPTATDDINSADIALRVSALSKTYRIYGRSQDRLLQGLWGNRKQLYREFRALDSISFEIRRGETFGIIGPNGSGKSTLLQLIAGTLTPTQGEIYIKGKVSALLELGAGFNGEFTGRENIRMAASIAGLNPGEIGQRHECIAAYADIGDFLDQPVKTYSSGMYVRLAFAVAISVEPEVLIIDEALAVGDMEFQAKCMVTLKQMQERGTTILFVSHDVGAVSALCKRTLYLKHGRALEIGPTPDVVARYIREVQEANNRKINVTVSENNDSRTTSPSDASETGIAPSHRTASLTSAEAASGAASGFLTAASPFRSVEKKHLARFAENANHCRSGTGDVRVIYAEMTDDEGLPVRSAEFGQSVLIRIIVEAARTCTFSVNYKICDKNRTPVIGADFLMQRQALLTLEPSQQAEALYRTSLPLTDGRYSLRISLTHPVNAHQQALFFDIVEIAHVFEVLPNPTAKFWTQVYLPNTLDVRVLE
MKITIIGAGNIGSAVAACLAKGHLYNEKDIIISTPHTDKLENLHKQFPAIRIMTENQYAISEADIIILAVKPCIVDEVLSPLRFSRTQILVSLVTGISISHLAHLSETEMPIFRVVPNIAITEHSSLTLITSRKAGKEHQQLIKQTFEEGGKCLFAEEKQLDIISALTSSGIAFALKYIHAAMQAGIELGISAEDAMRMTAYSMEGATELILNHDTHPLLEIEKAATPGGATIKGLNELEHRGFTSAVIHAIKSSATVSTDKETEE
MKLSGGVEWALHCCVVLSQAESPVPTARLAELHGVSKTYLAKHLQSLARAGLVHPTEGRDGGYVLTRAPEAITVLDVVQAVDGTEPAFRCTEIRRQGVLAAPPEQCRSACGIAKVMAGAEQAWRASLSSVTIADLGATIDLTVLKHILATSTT
MLPLIYHSIYSRLELPEGHRYPIMKYQYLYEEVRRDVQAEWVQFFEPQALSIEAIKRVHDADYVDLLAQGNMPAAKMRRIGFPWSEALITRTLTSAAG
MGSDKIHHHHHHMNKEIPKFLENTQIEKFICNELDYKKEILRELKELLENFNTINVKNSINSKYIALLMLSIFNAFHFKKELNKNLVNSLDAIIFAIKSIGTDESFIVLFKAFLHANVEVSSNEDAPGEIIIKLLGNIKSPIEFNIAAKNQNKLKKITAKHAGFKKALTSNYMPKDYKNSVYEFIKILIPIGRIVKIIDKKQIEIKGTRTKKFSTADHFF
MSKYSDAKELASLTLGKKTEYANQYDPSLLQPVPRSLNRNDLHLSATLPFQGCDIWTLYELSWLNQKGLPQVAIGEVSIPATSANLIESKSFKLYLNSYNQTRFASWDEVQTRLVHDLSACAGETVTVNVKSLNEYTAEPIVTMQGECIDDQDIEIANYEFDDALLQGAAQGEEVSEVLHSHLLKSNCLITNQPDWGSVEIAYHGAKMNREALLRYLVSFREHNEFHEQCVERIFTDIMRYCQPQSLTVYARYTRRGGLDINPFRSSHQSAPNHNQRMARQ
AGRTGRLHLAIECHSCFQWLMPALDAFRGQWPDVALDLSAAFSFAPLPALVRGDLDLVITSDPQALEAVTYLPLFKYELVLAVAESNPLAANRHVMPEQLADQTLITYPVDRQRLDIFTGF
GVKCEPIEELTINVPEEYSSKIIDMVTRRKGEMTMMENTGERINLEFDMPSRGIIGLRTNVLTASAGEAIMAHRFKEYQPFKGDIERRTNGSIIAMESGTAFAYAIDKLQDRGKFFIFPQEEVYAGQV
IAAVGDGVCMLDRGFRIVYQNRAHERLLGEHGGERCSDAYGEDPDACRDCPMARAMDTGEVCTGSRRFISKGETRLLEITSSPVRNAAGEIVAGVEVVRDVT
DRRFQETLDKIRKEEGYDFAAIAFYESNKPSSPIKWHYVSGNKNNRFKLIILRKGRGLAGTVMKTGKRMVIANVGLALGPEEKIDYPILLSESLTAVLAVPLWYKNQVYGVLLFGQRDGRPLPKIFDNDDIQ
MSLALIVQKFGGSSVGSVERIQAVAQRVYKTVKAGNSLVVVVSAMGKTTDGLVKLANEISRNPNRREMDMLLSTGEQVTIALLSMALQELGQPAISMTGAQVGIVTEAEHTRARILHIETERVEGHIKEGKVVVVAGFQGISSNGSLEITTLGRGGSDTSAVALAAALQADFCEIYTDVPGILTTDPRIVPEAQLMGEITCNEMLELASLGAKVLHPRAVEIARNYGMPLVVKSSWTDDPGTWVTTPKPQGRSLINLELARPVDDVELDTDQAKVALLRVPDKPGVAAKLFGEISRQKVDVDLIIQSIHEGNSNDIAFTVTTPILKRAEAVAAAIAPSLRSPSHPKSDEAEVMVEQNIAKVSIAGAGMIGRPGVAAQMFATLAEAGVNIQMISTSEVKVSCVIDAQDGDRAIIALRKAFEIETPLHSQLPTPSSLSTHNSPPVRGVALDLNQARLAIRQVPDRPGMAAQLFGILSQHNISVDMIIQSQRCRIVDGVPRRDIAFTVPRMDGETAQKLLCQVAPELGWGDVVLDSAIAKVSIVGAGMVGQPGVAAKMFEALAKHQINIQMIATSEIKISCVVSQEQGVQALQVIHTAFELAGTEKFVVPAEGHHHHHH
MNTDILIGAIAGDIIGSYYEFVPIKSIDFPLFNGSSSHFTDDTIMTIANADWLLTGDSLLGIMQDYGNRYHSSYGSMFYEWLRADNPQPYNSWGNGSAMRVSPIDWAFNTLEETLEAAKQSAEVTHNHPEGIKGAQATAACIYLARTGKSKQEIKEYVETTFGYNLNRTCDDIRPTYHFNESCQGTIPESIIAFLESTDYESAIRLTISLGGDADTMGAITGGIAEAYYKEIPQYIIDEVLKRLSEEFIDIMQRFYRMFISS
MAAATATAAATSKKMTYEFTIDDDELSEDGKPSTDQATMCNIYKLNLPASASILSKQIAKSQAKRAKKEERHRRRVDLSTVREQDETRVSNSEENSQNASPRPMTASALVPPDEIPDSAPASHCGGGGGRSRIDSAPLGVKLQRQASLPEDQRKAEPMDEEEAELLAMLLGGIERNERKQMTLNGAGNQKIQEAPIVQAPQIPPSPGLPRLPPGAKVSEWLLERSSSPDNVSVISSVLLEDSGLLLNYQNSVGDEEEDVFFDAEEEKPDDVVNCVEHELQGKSLRVFVRDLSHVLGLSLNRNMAAMTQSLVRVEEETTTTDGPAANDSFRTGRSTSVSPRPTNEQFLRNTNGSATFNVKHSSTLARLQKLTPPNNGNTNPILSTTTTPLSSRTTRSVLRVHNVNSVPRPSVQNSTMSKSSVTANQTNRRAFSGVRMPDMNPTLQKSSPPVVTINPLTPSRPASVASSIGARSGVNGTMTASNLEGLQDLIQQQEDALRRAALNDQSTERKMSWQSDQDANNRQSTSVHSSLGSICSSKSIDGAHALSKMGTPTASRIPTPRSRLPTPRGSNLPKRVYVFFGNFGPNSR
MGSDKIHHHHHHMRASVLSDWLAQRLDRGNGQPIYRQLHRLLQQAILTRELPPGSKVPSSRLLAQELGIGRNTVTQVYEQLVLEGYVSSATGRGTFVADSAPDEIVGVPDAAAPDTSAESSPQQAKRALSTRGARLIAGAGVSKRQWGAFMPGVPDVTKFPARVWSRLHNKYWRRLRPDLLTYAPGGGLASLRHALADYLRTSRSVRCTPEQIIITTGIHQSVDLAVRLLSDPGDVIWTEDPCYWGVRSVLHVSGLQSRPIAVDEEGINPSADDLAQPPKLMLVTPSHQYPLGMVMSLARRRMLLEYARQNQCWIIEDDYDSEYRYGSRPLASLQGLDTSGQVIYVGSFGKTLFPGLRIGYLVVPEALAESFATASAELYREGQLLQQAMLAEFIAEGHFTSHIRRMRTLYGQRRQTLLDAAAHRYGDALPAVGGDAGLHLVMQLPEGSDDRQVAATALERNIVVRPLSGYYAQPSLAPSGLLIGYACVPDEEIAPAFNTLADAIDVTLPEFA
MSLEEETYVVFDVETTGLSAVYDTIIELAAVKVKGGEIIDKFEAFANPHRPLSATIIELTGITDDMLQDAPDVVDVIRDFREWIGDDILVAHNASFDMGFLNVAYKKLLEVEKAKNPVIDTLELGRFLYPEFKNHRLNTLCKKFDIELTQHHRAIYDTEATAYLLLKMLKDAAEKGIQYHDELNENMGQSNAYQRSRPYHATLLAVNSTGLKNLFKLVSLSHIHYFYRVPRIPRSQLEKYREGLLIGSACDRGEVFEGMMQKSPEEVEDIASFYDYLEVQPPEVYRHLLELELVRDEKALKEIIANITKLGEKLNKPVVATGNVHYLNDEGHHHHHH

Soluble on expression in E. coli, soluble:
SDEEKKRRAATARRQHLKSAMLQLAVTEIEKEAAAKEVEKQNYLAEHSPPLSLPGSMQELQELSKKLHAKIDSVDEERYDTEVKLQKTNKELEDLSQKLFDLRGKFKRPPLRRVRMSADAMLRALLGSKHKVNMDLR
IETNRRERRIKRNKYLLSLYNNTNIKTSNFIYPLFIHEEDVEKKHTQLEGIYTYNVDGIIKEIEECIKLNIHHFMFFPVIREENKTVYCEESYNENSYFCKTISRIKEKFSDDIIVYTDVALDPYNIYGHDGIYDDNKKEILNDITVHTLVKQSLCLAKSGADVVCPSDSMDKRIELIRKNLDFHNFRDILILSYTCKYSSSMYKPFRSILNSNILKNFVKNKQSYQHDFNSYMDLNNVDKHIIEGADIIMVKPSMFYLDIIHKIKNRIKDDVQIPIAVYNVSGEYMMIKNYVKYLNEDINYENEIITELFKSYLRAGANIIITYFAKQYGLYMKKLYDKNIIIDDNSNNNFNIELTL
MAPPNGTTNGETEVATQGSYTAVSTGRKTTMHRLIEEHGSVLMPGVQDALSAAVVEKTGFHAAFVSGYSVSAAMLGLPDFGLLTTTEVVEATRRITAAAPNLCVVVDGDTGGGGPLNVQRFIRELISAGAKGVFLEDQVWPKKCGHMRGKAVVPAEEHALKIAAAREAIGDSDFFLVARTDARAPHGLEEGIRRANLYKEAGADATFVEAPANVDELKEVSAKTKGLRIANMIEGGKTPLHTPEEFKEMGFHLIAHSLTAVYATARALVNIMKILKEKGTTRDDLDQMATFSEFNELISLESWYEMESKFKNFTPKAT
MVYPRLLINLKEIEENARKVVEMASRRGIEIVGVTKVTLGDPRFAETLRKAGIGILGESRIRNVLRMKKAGIEGPFMLLRLPMMSELVEDVKHFDYIMVSDPDVAKKVDELSREMKRNVKIIYMIDVGDLREGVWFEKAVEEIAQCRGANIVGIGTNFGCYGGIIPTREKFEILLDIKEKLEKNHGFNIEIVSGGNTPALYALENGEIPEGINQLRIGEAIVLGRDITNNRVIDWLSQNTFLIEAEVIEVKEKPSVPLGKRGLDVFGRKVDFVDRGIRKRAICALGEQDIDSRGLIPVDKGVEVLHASSDHIVLDVTDFGDVKVGDVFRFRMTYSCLLKAMTSPFVEKVYEPSI
MSLSSLGAPAISAASFLQDLIHRYGEGDSPTLQQLKALLNHLDVGVGRGNVTQHVQGHRNLSTCFSSGDLFTAHNFSEQSRIGSSELQEFCPTILQQLDSRACTSENQENEENEGHHHHHH
MSLELLSKLETKIQATLETIELLKMELEEEKQKTSTLSEQNNQLIEQNQQLQQELTSWNEKVTGLVGLLNSEI
